# Measurements as given in the RNAGym collection of RNA variant scans (doi:10.7554/elife.90254).
# B1: LINE1-mini (parent)
# chain: GGCAGAGCUCAACACAGCGUGGCAAAGUGGCUGUGGCUAGACUGCC
# Variants of: B1
# Assay: self-cleavage, relative activity (ratio to wild type); higher = more cleavage; in vitro, sequencing; the parent is a self-cleaving ribozyme
row,Variant,self-cleavage
1,C8U U20C,0.09
2,A14U U34A,0.82
3,G21C A25C,0.85
4,U9C C13A,0.05
5,A26G G30U,1.61
6,G1C G19U,0.06
7,A16G U34C,0.08
8,C3U C42G,0.07
9,G22A A24U,0.75
10,U9C C31A,0.02
11,A14U A26C,0.6
12,G21U U32C,0.68
13,C10A C46U,0.07
14,U28G C31G,0.28
15,A12C A25C,0.03
16,G2C G30A,0.24
17,C15A C23U,0.14
18,C23G C42A,0.19
19,A24U A39G,0.14
20,C23U G27C,0.73
21,G2C G30C,0.23
22,G17U U43C,0.06
23,G7U U20G,0.08
24,G21U G27C,0.54

row,Variant,self-cleavage
1,A4U G44U,0.25
2,A26C G44U,0.28
3,G2U U34C,0.04
4,A14U C31U,0.04
5,A26G C45A,1.06
6,C15U A39U,0.72
7,A11U A25C,0.11
8,G2A G35A,0.26
9,U9A C23G,0.16
10,A25C C45U,0.49
11,A12G G29A,0.03
12,C10U U20C,0.28
13,G17C A24U,0.6
14,G17U C42A,0.05
15,G1A G30U,1.59
16,A41U C46U,0.9
17,G5C A24G,0.06
18,A11C C42A,0.02
19,G5U G19U,0.1
20,G36C G40U,0.18
21,U9A G17C,0.06
22,G36A U38A,0.08
23,C13A A25C,0.06
24,C18U G27A,0.84

row,Variant,self-cleavage
1,C37A C42G,0.06
2,C15G A26G,0.03
3,A24C A26C,0.28
4,C23G C46G,0.6
5,G44A C46G,0.12
6,U28A C46G,0.87
7,U20C,0.66
8,C10G G44A,0.05
9,A14G C37G,0.04
10,G2U G7U,0.05
11,A25U C31U,0.23
12,C15U C23U,1.91
13,A4G C42A,0.09
14,G29U U43G,0
15,A11G C31U,0.02
16,C13A A26C,0.18
17,A24G A39C,0.27
18,C23G G44A,0.41
19,C3A C15G,0.09
20,G2A G33C,0.05
21,U32C U38C,0.06
22,C3U A39C,0.19
23,A24C C42U,0.13
24,G2A A25G,0.23

row,Variant,self-cleavage
1,U28A C37U,0.04
2,A24C G35C,0.06
3,C18U A39C,0.16
4,U32G C37U,0.07
5,G19A C46U,1.74
6,G5A G22U,0.14
7,G7U G21A,0.14
8,G5C U9A,0.12
9,G35U A41C,0.08
10,C23A C31U,0.45
11,G1A U32G,0.09
12,A12U G36C,0.04
13,C15G U43C,0.03
14,G19U G30C,0.59
15,G29C U32C,0.7
16,A12C C31A,0.03
17,G21C G22U,0.46
18,C18A U34C,0.06
19,A4G G27A,0.4
20,G2A A24C,1.16
21,U20A A26C,0.76
22,A26U G29A,1.35
23,C3G C45G,1.97
24,A6G G19A,0.09

row,Variant,self-cleavage
1,A16U U34C,0.07
2,C8U U28G,0.13
3,C15G U34G,0.02
4,G19U G35U,0.16
5,G27C C46G,0.59
6,A6U A25C,0.65
7,G30C G35C,0.09
8,G1U G36A,0.11
9,A14G G22C,0.31
10,G1C C42A,0.02
11,C18U C42A,0.09
12,G7C G22C,0.08
13,A14U C18U,0.08
14,A25G C31A,0.1
15,G40A A41G,0.08
16,G2C A4G,0.16
17,U9A G44U,0.09
18,G30U G35C,0.07
19,A14C G29A,0.29
20,A24U,1.42
21,G1U G35C,0.07
22,U32A G35U,0.05
23,A4U A16G,0.12
24,A16G C46A,0.64

row,Variant,self-cleavage
1,G7U C10G,0.03
2,A12C A24G,0.04
3,G21A G40A,0.29
4,G36U U43C,0.06
5,G2C A16C,0.02
6,G2U U34A,0.04
7,G33C U34A,0.09
8,G1C A25G,0.01
9,G7A C10G,0.02
10,G29A C42U,0.42
11,A12U A14C,0.05
12,A6U C10U,0.12
13,G5U C8G,0.14
14,G19C A25C,0.5
15,A4C U32C,0.1
16,G30A C31A,0.4
17,G1U C45A,0.26
18,C8A G27C,0.12
19,U20A C23G,0.69
20,G36U C45A,0.15
21,U9G A39G,0.08
22,G22C C37A,0.09
23,U28G G33U,0.06
24,U9C G21C,0.06

row,Variant,self-cleavage
1,C13U G19A,0.16
2,A11U C45A,0.05
3,C15U U28C,1.52
4,G35A C37G,0.02
5,U28C U34G,0.21
6,C23G C45U,0.97
7,G2A C23G,0.4
8,A16U G19C,0.6
9,G40U A41C,0.2
10,C18A G40U,0.06
11,C13U G44U,0.1
12,A11U G29C,0.09
13,G30A A41G,0.27
14,C31A G44C,0.04
15,A4C C45U,0.2
16,G19U U28C,0.67
17,C15A C45G,0.05
18,A6U,0.7
19,G5C G40U,0.1
20,G30A C45A,0.71
21,G5A G21A,0.25
22,G29U U34A,0.37
23,G36U C45U,0.11
